From the DeepSol protein solubility set come the findings set out here.

The nature of the series: soluble on expression in E. coli; label from the status in PepcDB or PDB records.
Consider “MVPAAENLSPIPASIDTNDIPLIANDLKLLETQAKLINILQGVPFYLPVNLTKIESLLETLTMGVSNTVDLYFHDNEVRKEWKDTLNFINTIVYTNFFLFVQNESSLSMAVQHSSNNNKTSNSERCAKDLMKIISNMHIFYSITFNFIFPIKSIKSFSSGNNRFHSNGKEFLFANHFIEILQNFIAITFAIFQRCEVILYDEFYKNLSNEEINVQLLLIHDKILEILKKIEIIVSFLRDEMNSNGSFKSIKGFNKVLNLIKYMLRFSKKKQNFARNSDNNNVTDYSQSAKNKNVLLKFPVSELNRIYLKFKEISDFLMEREVVQRSIIIDKDLESDNLGITTANFNDFYDAFYN”, for which the “soluble on expression in E. coli” value is “soluble”.
As for “MCTSKPKFIPLPEQQSLCSLPNSGCCHVDVKVGRSKWEKRVAVLVQVEGEPDYKIYIYTKPLIGQIYPLNELKKREVKCEKDKVFLVNLASEKGEKITFKATGNNGSIWVAALMSGTFTSPIHETHGHTGGTGTDGTTSNIESDLKEKPDTNVYTGSREGYVPPPAKEGSGSGGKKKDMNNVAVKPDEKKKDSGRKLKKTVSKTITKLSVSESKKKTEKKIAATQKTQEFPIPKTVDEAHTNSEPDGDPLKLKKTITDGNELSLKGATAPTPQKAKLTTPTSTTPASSLTPSNALTPGNEDKKKMTTDSEEIELHEKKK”, the “soluble on expression in E. coli” value was “soluble”.
Under “MGSDKIHHHHHHMSKLFDCITDELQDFIAAQHLFFVGSAPLSPTGHVNLSPKGLGCFRVLSPKQVGYVDLTGSGNETSAHLQENGRITFMFCAFEEPACILRLYGQGNTILPSSPDWDSLYSLFLPMPGTRQIIVADIEKVQTSCGFGVPLYEYQGQRQTLVNWASKKGEEGVREYQQKKNLVSIDGLPTPLSKLS” stands “not soluble”.
Consider “MEVEAFAHSVAPLAPRLKRVAYSILDDEEAAADVSQEALMRLWINRERLGGYDSIEAVAVTTARRIALDMLRKEGRMEPLPDDLPFSDHAPTPQGVLEQSETMRLVEAAIEALPPLQRMTFRLKEIEGYESEVIARLVGVKVEAVYTNLSRARRALRTALALQLKR”, for which the “soluble on expression in E. coli” value is “not soluble”.
For “MSTNPFAILRLPESALRKSINQMGLMEQFSLSVLSNKTKHAVTMLPEVKNDVSITMTSSLELLLSNHSQDVDFIFEMDSHYPNVEIRQRFDNARCRFTQLSIPGFTVKHWIEHIVDVFCKNQGVALIFESIMRERFYELYEIIKNIKIVHLEPFSSQIQDYQRLTLFPSLEWLTVIGVDEAPIGTPILIQNFEGFIIFPNIQWKIDDVLISNFSNLRMWHRTFSVQDLNLFMRQWIKGSMPRLEEFDVILSHSNQHKLVETDLFKSIKYTVKENENCKINVIKRRDGAKASVCFGGKSSYEFHFTVESEPD”, the “soluble on expression in E. coli” value was “not soluble”.
Next, “MGSDKIHHHHHHMDFELDDGWDVYPIYGNTNKAFMGKKNHQRLFLKRNASPFLAALSMEEITPRLIWTKRISSGDTLTAQEWLNGQTLTKQQMRLPEVAHLLARVHNSELLHRMLRKVGGQSVRPQDFIQQYLQDLPDDLRHHPLMARVLDELRGTAPTLPATDYRVCHGDLNHKNWLLSDRQQLYLVDWDSARFADPASDISMLLCEYVPLSDWQQWLSEYGETMTTALRTRVVWYAKINLLLNIKDNYYRNQYHQMNHEIIFLEELSQYEV”: “not soluble”.
Under “MNYHSTNVNEIWDACLRILQDIVDERAYRTWFLPIIPVSIEGDTLTLQVPSQFFCEFLEGNFVEQLRTVLGRVIGPNASLQYNALVDNSSPKYPGTVTLAGCADGGQAAEQFDVNLLHRHM” stands “not soluble”; under “MITLPQLITTDTDMTAGLTSGKTTGSAEDFLALLAGALGADGAQGKDARITLADLQAAGGKLSKELLTQHGEPGQAVKLADLLAQKANATDETLTDLTQAQHLLSTLTPSLKTSALAALSKTAQHDEKTPALSDEDLASLSALFAMLPGQPVATPVAGETPAENHIALPSLLRGDMPSAPQEETHTLSFSEHEKGKTEASLARASDDRATGPALTPLVVAAAATSAKVEVDSPPAPVTHGAAMPTLSSATAQPLPVASAPVLSAPLGSHEWQQTFSQQVMLFTRQGQQSAQLRLHPEELGQVHISLKLDDNQAQLQMVSPHSHVRAALEAALPMLRTQLAESGIQLGQSSISSESFAGQQQSSSQQQSSRAQHTDAFGAEDDIALAAPASLQAAARGNGAVDIFA”, “not soluble”; under “MGSDKIHHHHHHMKQIGIIGCGWFGLPLAQALKQLGHKVIGTKRSIEGCEQLASLGITACPLDLNDDIFYNEAFANNTFANNINELLECQVLVINIPPGLRKKAGKAESRYLEQLSNLVHFIGPRGYQKLVFISTTGVYPAGDDAELPLSEADAKAHNDASEILLNAEALFAPMDNSCILRFAGLVGPNRHPGRFFAGKTGISGANVAVNLVHLDDCIGAVIKVINADKTAPVYNIVAPEHPSRGEFYPLATTHLGLVAPVFNQEVMPTKVISGALICQQLGFIYQYPDPLKMLYAC”, “not soluble”.
For “MRPYIINQTEQAQARFGINNDFPVNVILMQPTTSHETFLEGSDYVDFESTSKLRNWPIIVGNQKYFVDPAIFARNSDYFRILMENKFFLEGAIKQLNILDESPEDILKLITVISPNSLGLYPDVIDEQNVCTVLRLCDKYLMTNLKQNCVDYLKDYNPDSREPTDIFHLFYHLCFSLNAEYEHDHSLADVALEAMFVCLVELFNSTNVTKFYRFLIELQRKSGEKDSENLKRVTDAVLHGGSIFKHRISFSEEVQGLGCHQCSMRPPARQSRSKNRKSFVLYLCKSCNREVCVQCRRSLCSRLFEDWINELRS”, the “soluble on expression in E. coli” value is recorded as “not soluble”.
For the sequence “MGSDKIHHHHHHMALNLKKLPILFLSDSTTSVAISREAKAGRIRKIGPRLYTSNTSDDPAYIIRQNWLQALTLLFPGCVVSNRTALESRVSPAGRVYVTGDYARTLELHGTKFVQVKGSPPVEGDTPLLGIFMASRARALLENLTPSRERSGGELKNLPREMIERRLAELLNVEKEDSVNRLRDQARQIAPLLGLEKEFDELDDLIGTLLRTRKATLADPVAKAHQLGTPYDPHALERVETLWSVLASMPHNYRPTNAGTGTPFYTVSFFDAYFSNYIEGTRFKVDEAKEIVDSGVIPAIRPADGHDILGTYRVVSSLENMRRTPKNPDEFIELLQSRHADIMVGRPDKRPGEFKEEVNYAGATRFVDPDLVRGTLSQGFSLYKSLEHPFARALLIMFLVAEVHPFDDGNGRAARAMMNSELITAEETRIIIPSVFRNEYVASLKRMTNHLQPESFISVMSFAQEFVSRISFDSYASARVQMEGCNAFDDPADDKRLLQPSIS”, the “soluble on expression in E. coli” value is recorded as “not soluble”.
For the sequence “MAHHHHHHMCVKCLFLARSEMAIEESACNDDSQAVTEATSERTVNSATVFRYPFNTMDLGWLVGYIDAFLVKSERWAAAMRLTTCFMTFTVLHEDPLMEDATFQLHKTMLDRSIKKSWPRRNRDLSNTFDAAYHVFETICIVSKYPNLDPAGKAGILRMSEKLIQGMEKPMDNVVIKIDLKKKSETLHATLARLQALGRAPESLSAFDALMASLKMVFFCYVASLGINNMMLDANLNKMDSYVCCEGCPCHAKLRTTYTLFIRDVEKTKVIDCLLIMAVKEDDAFLSKLAEGLFTQFDCRSPFLEKPVRRIQNGALFMVRIALFDAFRHVKALLVDLRASPASLAPQIDNVVLALYIARREMRGMKGLNEHLPLVNKALATADSIYSRLGTENASQELRTLKDYITKIFFLVSAPEFHLAVHSKDPLVGKGAKLCCGNPDCPGKVKEMLKCSGCRVTFYCSVTCQRDDWKTHRFLCKEMGCRKAAPAPIKMAECSTETLKPAAFHG”, the “soluble on expression in E. coli” value is given as “not soluble”.
Next, “MSLTELEFVTEHRRYLHKHPELSLHEYETTKYIAHFLDDLGVPYERPLDTGVIAYLSGNSTHTIAYRADIDALPIYEENNVSYRSEVDHVMHACGHDGHTTALMLFVKRCKNLADKGELPQNIVFIFQPAEETGGGANRLIRAGAFEKYPIEAVFGIHVMPFENEGRVVIRDEEITASATEYRFYLHGLSSHVADKEQGHSCGEALQHVLTQVGQIQQYHLNGLKRNIVHMGHFEAGEAINTVPSNGYLEGTIRTYDVKDLEIVKQQMTKISESVKLLFNVECEVKFEEGYPPTFNDPQLRKHVENGLVNAEFEVIDKPTPYLFGEDFSFYSQIAPSYFVFVGVRDEAKGYVTGLHTSHLNFNESILIRIADYYEQILKSYSEVQSEGHHHHHH”: “soluble”; “MASGDITRYVITVTFHEDSLTEINELNNHLTRSGFLLTLTDDEGDVHELGTNTFGFVSAQSADEIKALVAGLAKSALDKDVDITVATWEAWSKNAQ”: “not soluble”.
For “GEMDERLLQKYRAQVFEWGGCFDKMFEALKSLIYLSEFENSEFDDEERHLLTLCIKHKISDYRTMTSQVLQEQTKQLNNDELVKICSEYVFSLRKDIKAFLQSFEDCVDRLVEKSFFSKFFKLKVKSDISRYKLEFGLCSLEDSKKIHQDAFTLLCEHPDKIEQLPLGFIQNLAYILSEKYGEKKQVFNMLNSLGKILELQIKEQENMDRKAQITVYLQGIKDYIEK”, the “soluble on expression in E. coli” value is given as “soluble”.
In the case of “MGSDKIHHHHHHMTAQFDDATLTKRLAKGTGEILKGVRNVGLLRGRELGEAGDDLAQNWIARVLEQHRPDDGFLSEEAADNPERLGKDRVWIIDPLDGTKEFATGRQDWAVHIALVENGVPTHAAVNLPDLGVVFHSSEVRAVGGPYAKKIAISHNRPPAVATHIAESLGFTAEPMGSAGAKAMHVLLGDYDAYIHAGGQYEWDSAAPVGVSLAAGLHCSRLDGTPLNYNNKDTYLPDVLICRPELADDILTMAAAFREENGSY”, the “soluble on expression in E. coli” value is reported as “not soluble”.
Consider “MGSDKIHHHHHHMTPQPLADNLSPPDPARLAQSIKDWGRELGFQQVGISDVELGEHEAHLQRWLEAGYHGEMDYMAAHGSKRSRPAELVPGTLRVISLRMDYLPGDTRMAQVLATPEKAYVSRYALGRDYHKLIRKRLQQLAERIQAEVGPFGFRAFVDSAPVLEKAIAEQAGLGWIGKNTLVLNRKAGSYFFLGELFVDMPLPVDPAMDSEHCGRCSACLDICPTAAFVGPYRLDARRCISYLTIEYKGAIPLELRPLIGNRVFGCDDCQIVCPWNRFARPTGQGDFQPRHSLDNAELAELFLWSEEEFLGRTEGSPLRRAGYERWLRNLAVGLGNAPSTIPVLEALKARRGFPSELVREHVEWALRRHGET”, for which the “soluble on expression in E. coli” value is given as “not soluble”.
For the sequence “MRFFLSPPHMGGNELKYIEEVFKSNYIAPLGEFVNRFEQSVKDYSKSENALALNSATAALHLALRVAGVKQDDIVLASSFTFIASVAPICYLKAKPVFIDCDETYNIDVDLLKLAIKECEKKPKALILTHLYGNAAKMDEIVEICKENDIVLIEDAAEALGSFYKNKALGTFGEFGVYSYNGNKIITTSGGGMLIGKNKEKIEKARFYSTQARENCLHYEHLDYGYNYRLSNVLGAIGVAQMEVLEQRVLKKREIYEWYKEFLGEYFSFLDELENSRSNRWLSTALINFDKNELNACQKDINISQKNITLHPKISKLIEDLKNKQIETRPLWKAMHTQEVFKGAKAYLNGNSELFFQKGICLPSGTAMSKDDVYEISKLILKSIKAGSHHHHHH”, the “soluble on expression in E. coli” value is “soluble”.
Next, “MGSDKIHHHHHHMTNVSGYHRPELHITAESGVLFAPAGVLLDDDTWHFFHQYRPSPDHGPRWAHQFAERTPFVWDICDDVLAPEGDETQVRAGSVVSNNGGVDLYFTSVVGPTSTIQLAHINNIRGTTELINEDELGLDPDVSRIGEVVGNTDGYVKFRSPCVIPGWEDQGNRDEGHSGWLMLAVTGPVEAPTVVVLDSPDGREWSITGPLSLNGLSGLESDEVLVAPRMIRLRDEVDHEIYDVLIVTIEQDGIDISGYLVGQLNGSEFDVKTPFTRIDFGHDFSRPRNTNYAETTIGYDFAHIFGLMNGVGRLDSPTEHLSWKEEGWANAISFPRIVTLQDGTVFQTPPEGLLDAIHESEAAAGWTGLCEIPSNSAVEVALKDQEGEIAATITHRHNQLVVDRSMNPNHAGDPHAIAPLTDDETDSLFIVVDGSTVEVFADGGYVSMASRVYFNNGPFSEFEVTTTGDASIIRQESHFPVDFSSVSLDIDDLTALMQFDENEPHEGPVR”: “not soluble”.
